# Measured values from PMC9770967, “Native holdup (nHU) to measure binding affinities from cell extracts” (Science Advances, 2022).
# B1: BYSL (protein, UniProt Q13895 1-437, looked up)
# Bystin: MPKFKAARGVGGQEKHAPLADQILAGNAVRAGVREKRRGRGTGEAEEEYVGPRLSRRILQQARQQQEELEAEHGTGDKPAAPRERTTRLGPRMPQDGSDDEDEEWPTLEKAATMTAAGHHAEVVVDPEDERAIEMFMNKNPPARRTLADIIMEKLTEKQTEVETVMSEVSGFPMPQLDPRVLEVYRGVREVLSKYRSGKLPKAFKIIPALSNWEQILYVTEPEAWTAAAMYQATRIFASNLKERMAQRFYNLVLLPRVRDDVAEYKRLNFHLYMALKKALFKPGAWFKGILIPLCESGTCTLREAIIVGSIITKCSIPVLHSSAAMLKIAEMEYSGANSIFLRLLLDKKYALPYRVLDALVFHFLGFRTEKRELPVLWHQCLLTLVQRYKADLATDQKEALLELLRLQPHPQLSPEIRRELQSAVPRDVEDVPITVE
# B2: DARS1: Aspartate--tRNA ligase, cytoplasmic (protein, UniProt P14868 1-501, looked up)
# Aspartate--tRNA ligase, …: MPSASASRKSQEKPREIMDAAEDYAKERYGISSMIQSQEKPDRVLVRVRDLTIQKADEVVWVRARVHTSRAKGKQCFLVLRQQQFNVQALVAVGDHASKQMVKFAANINKESIVDVEGVVRKVNQKIGSCTQQDVELHVQKIYVISLAEPRLPLQLDDAVRPEAEGEEEGRATVNQDTRLDNRVIDLRTSTSQAVFRLQSGICHLFRETLINKGFVEIQTPKIISAASEGGANVFTVSYFKNNAYLAQSPQLYKQMCICADFEKVFSIGPVFRAEDSNTHRHLTEFVGLDIEMAFNYHYHEVMEEIADTMVQIFKGLQERFQTEIQTVNKQFPCEPFKFLEPTLRLEYCEALAMLREAGVEMGDEDDLSTPNEKLLGHLVKEKYDTDFYILDKYPLAVRPFYTMPDPRNPKQSNSYDMFMRGEEILSGAQRIHDPQLLTERALHHGIDLEKIKAYIDSFRFGAPPHAGGGIGLERVTMLFLGLHNVRQTSMFPRDPKRLTP
# B3: RAE1 (protein, UniProt P78406 1-368, looked up)
# mRNA export factor RAE1: MSLFGTTSGFGTSGTSMFGSATTDNHNPMKDIEVTSSPDDSIGCLSFSPPTLPGNFLIAGSWANDVRCWEVQDSGQTIPKAQQMHTGPVLDVCWSDDGSKVFTASCDKTAKMWDLSSNQAIQIAQHDAPVKTIHWIKAPNYSCVMTGSWDKTLKFWDTRSSNPMMVLQLPERCYCADVIYPMAVVATAERGLIVYQLENQPSEFRRIESPLKHQHRCVAIFKDKQNKPTGFALGSIEGRVAIHYINPPNPAKDNFTFKCHRSNGTNTSAPQDIYAVNGIAFHPVHGTLATVGSDGRFSFWDKDARTKLKTSEQLDQPISACCFNHNGNIFAYASSYDWSKGHEFYNPQKKNYIFLRNAAEELKPRNKK
# Tests used:
# [1] = system: SNX27_PDZ; test: AP-MS control pull-down on leftover resin, SNX27_PDZ bait, total Jurkat extracts; format: binding, human; settings: for FC_AP: SNX27 vs MBP
# Description: Leftover beads from nHU-MS experiments were washed three times immediately after the separation of the supernatant [10 resin volume in buffer containing 50 mM tris (pH 8.5), 150 mM NaCl, 1% Triton X-100, 10× cOmplete EDTA-free protease inhibitor cocktail, 2 mM EDTA, and 1 mM TCEP]. Then, the beads were washed two times [10 resin volume buffer containing 50 mM tris (pH 8.5), 150 mM NaCl, and 1 mM TCEP]. Last, captured protein was eluted from the resin in two steps, and the eluted fractions were pooled. For each elution, the beads were incubated for 30 min with three resin volume buffer containing 20 mM tris (pH 8.5), 100 mM NaCl, 500 μM TCEP, and 8 M urea. Between each step, the beads were separated by mild centrifugation, and the supernatant was removed by gentle pipetting.
# The nHU samples were precipitated with trichloroacetic acid (TCA) 20% overnight at 4°C and centrifuged at 14,000 rpm for 10 min at 4°C. The protein pellets were washed twice with 1 ml of cold acetone and air-dried. The protein extracts were solubilized in 8 M urea, reduced with 5 mM TCEP for 30 min, and alkylated with 10 mM iodoacetamide for 30 min in the dark. Double digestion was performed at 37°C with 500 ng of endoproteinase Lys-C (Wako, Richmond, USA) for 4 hours, followed by fourfold dilution and an overnight digestion with 500 ng of trypsin (Promega, Charbonnieres les Bains, France). Peptide mixtures were then desalted on a C18 spin-column and dried on a speed vacuum.
# Samples were analyzed using an Ultimate 3000 nano-RSLC coupled in line via a nano-electrospray ionization source, with an LTQ-Orbitrap ELITE mass spectrometer (Thermo Fisher Scientific, San Jose, CA) or with the Orbitrap Exploris 480 mass spectrometer (Thermo Fisher Scientific, Bremen, Germany) equipped with a high field asymmetric ion mobility spectrometry (FAIMS) module. Peptide mixtures were injected in 0.1% trifluoroacetic acid on a C18 Acclaim PepMap100 trap column [75 μm inner diameter (ID) × 2 cm, 3 μm, 100 Å, Thermo Fisher Scientific] for 3 min at 5 μl/min with 2% acetonitrile (ACN) and 0.1% formic acid (FA) in H2O and then separated on a C18 Acclaim PepMap100 nano-column (75 μm ID × 50 cm, 2.6 μm, 150 Å, Thermo Fisher Scientific) at 300 nl/min and 40°C with a 90-min linear gradient from 5 to 30% buffer B (A: 0.1% FA in H2O/B: 80% ACN, 0.1% FA in H2O) and regeneration at 5% B. Spray voltage was set to 2.1 kV and heated capillary temperature was set to 280°C.
# For the Orbitrap Elite, the mass spectrometer was operated in positive ionization mode in data-dependent mode with survey scans from mass/charge ratio (m/z) 350 to 1500 acquired in the Orbitrap at a resolution of 120,000 at m/z 400. The 20 most intense peaks from survey scans were selected for further fragmentation in the linear ion trap with an isolation window of 2.0 Da and were fragmented by collision-induced dissociation (CID) with a normalized collision energy of 35% (TOP 20 CID method). Unassigned and single-charged states were excluded from fragmentation. The ion target value for the survey scans (in the Orbitrap) and the MS2 mode (in the linear ion trap) were set to 1E6 and 5E3, respectively, and the maximum injection time was set to 100 ms for both scan modes. Dynamic exclusion was set to 20 s after one repeat count with mass width at ±10 parts per million (ppm).
# Proteins were identified by database search using SequestHT (Thermo Fisher Scientific) with Proteome Discoverer 2.4 software (PD2.4, Thermo Fisher Scientific) on the human FASTA database downloaded from UniProt (reviewed, release 2021_06_03, 20380 entries, https://uniprot.org/, complemented with sequences of likely contaminants, such as MBP, streptavidin, or trypsin). Precursor and fragment mass tolerances were set at 7 ppm and 0.6 Da, respectively, and up to two missed cleavages were allowed. […]
# [2] = system: SNX27_PDZ; test: nHU-MS, SNX27_PDZ bait, total Jurkat extracts, series 1; format: binding, human; settings: for pKapp_HU_not_filtered: SNX27 bait, not filtered for significance; for FC_HU: SNX27 vs MBP control
# Description: The empty His6-AviTag-MBP-TEV vector was used to produce biotinylated MBP for control experiments. Proteins were coexpressed with BirA biotin ligase (PET21a-BirA, Addgene, no. 20857) in Escherichia coli BL21(DE3) cells. At isopropyl-β-D-thiogalactopyranoside (IPTG) induction (1 mM IPTG at 18°C overnight), 50 μM biotin was added to the media. Harvested cells were lysed in a buffer containing 50 mM tris (pH 7.5), 150 to 300 mM NaCl, 50 μM biotin, 2 mM β-mercaptoethanol, cOmplete EDTA-free protease inhibitor cocktail (Roche, Basel, Switzerland), 1% Triton X-100, and trace amount of deoxyribonuclease, ribonuclease, and lysozyme. Lysates were frozen at −20°C before further purification steps. Lysates were sonicated and centrifuged for clarification. Expressed proteins were captured on in-house prepacked Ni-IDA (Protino Ni-IDA Resin, Macherey-Nagel, Duren, Germany) columns and were washed with at least 10 column volumes of cold wash buffer [50 mM tris (pH 7.5), 150 mM NaCl, and 2 mM β-mercaptoethanol] before elution with 250 mM imidazole. The Ni elution was collected directly on a preequilibrated amylose column (amylose high flow resin, New England Biolabs, Ipswich, MA). Amylose column was washed with 5 column volumes of cold wash buffer before fractionated elution in a buffer containing 25 mM Hepes (pH 7.5), 150 mM NaCl, 1 mM TCEP, 10% glycerol, 5 mM maltose, and cOmplete EDTA-free protease inhibitor cocktail. The concentration of proteins was determined by their ultraviolet absorption at 280 nm before aliquots were snap-frozen in liquid nitrogen and stored at −80°C.
# For saturating streptavidin resin with biotinylated peptides or biotin, 50 μl of streptavidin resin was mixed with biotin or peptide at 40 to 60 μM concentration in 6 to 6.5 resin volume for 60 min. To saturate streptavidin resin with biotinylated proteins, 50 μl of streptavidin resin (Streptavidin Sepharose High Performance, Cytiva) was mixed with biotinylated MBP or MBP-PDZ at 40 to 50 μM concentration in 20× resin volume for 60 min. After saturation, resins were washed a single time [10 resin volume, holdup buffer: 50 mM tris (pH 7.5), 300 mM NaCl, and 1 mM TCEP, 0.22-μm filtered] and were depleted with biotin (10 resin volume, 10 min, holdup buffer supplemented with 100 μM biotin). Last, resins were washed two times (10 resin volume, holdup buffer).
# For single-point nHU experiments carried out at ~10 μM bait concentration, 50 μl of saturated streptavidin resin was mixed with 200 μl of cell lysate (2 mg/ml). Titration experiments were carried out by mixing control and bait-saturated resin and keeping the total resin volume constant; e.g., ~5 μM bait concentration can be achieved by mixing 25 μl of bait-saturated streptavidin resin with 25 μl of control resin and 200 μl of cell lysate (2 mg/ml). Control and bait-saturated resins were prepared in larger amounts, and a serial dilution was prepared with these presaturated resins to achieve different resin ratios.
# Unless specified elswhere, the nHU mixture was incubated at 4°C for 2 hours. After the incubation ended, the resin was separated from the supernatant by a brief centrifugation (15 s, 2000 g). Then, half of the supernatant was removed by pipetting without any delay to avoid any resin contamination; e.g., 100 μl of supernatant is collected if 200 μl of cell lysate was used as analyte. Alternatively, the supernatant can be centrifuged an additional time to clarify it further, removing any possible resin contamination. In principle, the separation of the supernatant should be as fast as possible since any delay can perturb the equilibrium. […] Alternatively, the resin can be separated from the supernatant using filter plates (e.g., various products of Millipore, Burlington, MA) or spin columns (e.g., Pierce spin cups—cellulose acetate filter from Thermo Fisher Scientific, Waltham, MA) to achieve faster separation. […]
# [3] = AP-MS control pull-down, SNX27/MBP, total Jurkat extract
# [4] = AP-MS control pull-down, total Jurkat extract
# [5] = nHU-MS, SNX27/MBP, total Jurkat extract, sheet "SNX27&Jurkat"
# [6] = nHU-MS, SNX27 bait vs MBP control, total Jurkat extract, sheet "SNX27&Jurkat"
# [7] = nHU-MS, total Jurkat extract, sheet "SNX27&Jurkat"
# [8] = Jurkat, series 1, leftover resin, n = 6
"pKapp_HU_not_filtered ([2]; nHU-MS, total Jurkat extract)","pKapp_significant_binders_HU ([2]; apparent, Eq. 2, Jurkat, series 1, significant binders (1 σ, P < 0.05))",Molecule,"Ratio_AP [1, 3]","FC_AP [1, 4]","BINDER_AP ([1]; AP-MS control pull-down, total Jurkat extract, BINDS / DOES NOT BIND)","Ratio_HU [2, 5]","BI_HU [2, 6]","FC_HU [2, 7]","FC_AP (log2 fold change) [1, 8]","Ratio_AP [1, 8]","BI_HU ([2]; Jurkat, series 1, n = 6)","FC_HU (log2 fold change) ([2]; Jurkat, series 1, n = 6)","Ratio_HU ([2]; Jurkat, series 1, n = 6)"
4.747,–,B1,9.097,3.185,DOES NOT BIND,0.6423,0.3577,-0.6386,–,–,–,–,–
–,4.739,B2,–,–,–,–,–,–,3.29,9.779,0.3534,-0.629,0.6466
4.751,–,B3,3.111,1.637,–,0.6404,0.3596,-0.643,–,–,–,–,–
